According to patent US20240376208A1 (AFFIMED, published 2024):

Legend:
[1] = target: T1, biotinylated monomeric CD16A antigen (human, UniProt P08637 17-208, limits assumed, biotinylated (site not stated)); test: ELISA, biotinylated monomeric CD16A titrated on construct captured by coated His-tagged human BCMA extracellular domain
T1 construct: Soluble antigen; also called soluble CD16A antigen
Description: (§1) For the capturing approach, 96-well ELISA plates (Immuno Maxisorp, Nunc) were coated overnight at 4° C. with His-tagged human EGFR or BCMA extracellular domain at concentrations of 3.0 or 0.4 μg/mL, respectively. After blocking with 3% (w/v) skimmed milk powder dissolved in phosphate buffered saline (PBS), antigen coated plates were used for capturing of different multivalent bispecific engagers at concentrations of 3-5 μg/mL in PBS containing 0.3% (w/v) skimmed milk powder. After washing three times with 300 μL per well of PBS containing 0.1% (v/v) Tween 20, plates were incubated with serial dilutions of biotinylated dimeric or monomeric CD16A antigen in PBS containing 0.3% (w/v) skimmed milk powder for 1.5 h at room temperature. After washing, plates were incubated with the detection conjugate Streptavidin HRP, 1:10,000 diluted in PBS containing 0.3% (w/v) skimmed milk powder for 1 h followed by washing and incubation with tetramethylbenzidine substrate (Seramun) for 1-2 min. Reaction was stopped by addition of 0.5 M H₂SO₄ (100 μL/well). Absorbance was measured at 450 nm using a multiwell plate reader, plotted and EC₅₀ values were determined by fitting a nonlinear regression model to sigmoidal dose-response curves (four parameters logistic fit) using GraphPad Prism software.
(§2) Concentration dependent binding of antibody constructs to coated recombinant CD16A antigen, or of soluble monomeric or dimeric CD16 antigen variants to coated or target antigen captured antibody constructs was analyzed in ELISA. Half maximal binding concentrations (EC₅₀) were determined by fitting a nonlinear regression model to sigmoidal dose-response curves (four parameters logistic fit) using GraphPad Prism software.

[2] = target: T2, biotinylated dimeric CD16A antigen (human, UniProt P08637 17-208, limits assumed, biotinylated (site not stated)); test: ELISA, biotinylated dimeric CD16A titrated on coated construct
T2 construct: Soluble antigen; also called soluble CD16A antigen
T2 sequence (P08637 17-208 limits assumed): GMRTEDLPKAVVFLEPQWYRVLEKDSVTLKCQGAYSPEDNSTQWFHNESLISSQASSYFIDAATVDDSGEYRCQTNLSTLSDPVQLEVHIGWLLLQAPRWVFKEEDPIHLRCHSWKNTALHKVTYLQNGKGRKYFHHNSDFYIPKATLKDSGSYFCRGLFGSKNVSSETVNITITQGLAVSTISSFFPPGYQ

[3] = target: T1, biotinylated monomeric CD16A antigen; test: ELISA, biotinylated monomeric CD16A titrated on coated construct
[4] = target: T2, biotinylated dimeric CD16A antigen; test: ELISA, biotinylated dimeric CD16A titrated on construct captured by coated His-tagged human BCMA extracellular domain
Description: as §1, §2

[5] = target: T3, His-tagged human BCMA extracellular domain (human, UniProt Q02223 1-54); test: ELISA, construct captured on coated His-tagged human BCMA extracellular domain
T3 construct: extracellular domain; Coated at 0.4 ug/mL to capture the BCMA-targeting constructs; not shown: His tag
T3 sequence (looked up): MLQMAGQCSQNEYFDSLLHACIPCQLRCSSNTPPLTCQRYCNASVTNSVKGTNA

[6] = target: T4, recombinant CD16A 158F fused to monomeric human Fc (human, UniProt P08637 17-208); test: ELISA, construct titrated on coated CD16A 158F fused to monomeric human Fc
T4 construct: also called recombinant CD16 antigen variant; not shown: monomeric human Fc
T4 sequence (P08637 17-208): as the sequence (P08637 17-208 limits assumed) above

[7] = target: recombinant CD16A 158V fused to monomeric human Fc (human, UniProt P08637 17-208); test: ELISA, construct titrated on coated CD16A 158V fused to monomeric human Fc
recombinant CD16A 158V fused to monomeric human Fc, sequence (P08637 17-208 F176V): as the sequence (P08637 17-208 limits assumed) above, with F160V counted along it

T1 sequence (P08637 17-208 limits assumed): as the sequence (P08637 17-208 limits assumed) above

B1: scFv-IgAb_18 (bispecific antibody)
heavy: EVQLLESGGGLVQPGGSLRLSCAASGFTFSNYDMAWVRQAPGKGLEWVSSISTRGDITSYRDSVKGRFTISRDNSKNTLYLQMNSLRAEDTAVYYCARQDYYTDYMGFAYWGQGTLVTVSSASTKGPSVFPLAPSSKSTSGGTAALGCLVKDYFPEPVTVSWNSGALTSGVHTFPAVLQSSGLYSLSSVVTVPSSSLGTQTYICNVNHKPSNTKVDKKVEPKSCDKTHTCPPCPAPEFEGGPSVFLFPPKPKDTLMISRTPEVTCVVVAVSHEDPEVKFNWYVDGVEVHNAKTKPREEQYNSTYRVVSVLTVLHQDWLNGKEYKCKVSNKALPAPIEKTISKAKGQPREPQVYTLPPSREEMTKNQVSLTCLVKGFYPSDIAVEWESNGQPENNYKTTPPVLDSDGSFFLYSKLTVDKSRWQQGNVFSCSVMHEALHNHYTQKSLSLSPGGGGGSGGGGSGGGGSGGGGSGGGGSGGGGSSYVLTQPSSVSVAPGQTATISCGGHNIGSKNVHWYQQRPGQSPVLVIYQDNKRPSGIPERFSGSNSGNTATLTISGTQAMDEADYYCQVWDNYSVLFGGGTKLTVLGGSGGSGGSGGSGGSGGSGGSQVQLVQSGAEVKKPGESLKVSCKASGYTFTSYYMHWVRQAPGQGLEWMGAIEPMYGSTSYAQKFQGRVTMTRDTSTSTVYMELSSLRSEDTAVYYCARGSAYYYDFADYWGQGTLVTVSS
light: AIQMTQSPSSLSASVGDRVTITCRASEDIYNGLAWYQQKPGKAPKLLIYGASSLQDGVPSRFSGSGSGTEFTLTISSLQPEDEATYYCAGPHKYPLTFGGGTKVEIKRTVAAPSVFIFPPSDEQLKSGTASVVCLLNNFYPREAKVQWKVDNALQSGNSQESVTEQDSKDSTYSLSSTLTLSKADYEKHKVYACEVTHQGLSSPVTKSFNRGEC
[1]
  EC50: 1.98 nM
[2]
  EC50: 2.31 nM
[3]
  EC50: 13.1 nM
[4]
  EC50: 0.74 nM
[5]
  binding result: binds
[6]
  EC50: 0.54 nM
[7]
  EC50: 0.31 nM
